Test results reported in patent publication US20170190753A1 (LABORATOIRE FRANCAIS DU FRACTIONNEMENT ET DES …, published 2017).
Values belong to the binder of their own block, whether it stands above or below them.

Target: C3 convertase complex (UniProt P01024 23-1663; P00751 260-764)
Assay: cell-based or functional assay
For C3 convertase activity % of the control in this document: test concentration or dose not given here.

Chain of C3 convertase complex (P01024 23-1663, chain 1 of 2): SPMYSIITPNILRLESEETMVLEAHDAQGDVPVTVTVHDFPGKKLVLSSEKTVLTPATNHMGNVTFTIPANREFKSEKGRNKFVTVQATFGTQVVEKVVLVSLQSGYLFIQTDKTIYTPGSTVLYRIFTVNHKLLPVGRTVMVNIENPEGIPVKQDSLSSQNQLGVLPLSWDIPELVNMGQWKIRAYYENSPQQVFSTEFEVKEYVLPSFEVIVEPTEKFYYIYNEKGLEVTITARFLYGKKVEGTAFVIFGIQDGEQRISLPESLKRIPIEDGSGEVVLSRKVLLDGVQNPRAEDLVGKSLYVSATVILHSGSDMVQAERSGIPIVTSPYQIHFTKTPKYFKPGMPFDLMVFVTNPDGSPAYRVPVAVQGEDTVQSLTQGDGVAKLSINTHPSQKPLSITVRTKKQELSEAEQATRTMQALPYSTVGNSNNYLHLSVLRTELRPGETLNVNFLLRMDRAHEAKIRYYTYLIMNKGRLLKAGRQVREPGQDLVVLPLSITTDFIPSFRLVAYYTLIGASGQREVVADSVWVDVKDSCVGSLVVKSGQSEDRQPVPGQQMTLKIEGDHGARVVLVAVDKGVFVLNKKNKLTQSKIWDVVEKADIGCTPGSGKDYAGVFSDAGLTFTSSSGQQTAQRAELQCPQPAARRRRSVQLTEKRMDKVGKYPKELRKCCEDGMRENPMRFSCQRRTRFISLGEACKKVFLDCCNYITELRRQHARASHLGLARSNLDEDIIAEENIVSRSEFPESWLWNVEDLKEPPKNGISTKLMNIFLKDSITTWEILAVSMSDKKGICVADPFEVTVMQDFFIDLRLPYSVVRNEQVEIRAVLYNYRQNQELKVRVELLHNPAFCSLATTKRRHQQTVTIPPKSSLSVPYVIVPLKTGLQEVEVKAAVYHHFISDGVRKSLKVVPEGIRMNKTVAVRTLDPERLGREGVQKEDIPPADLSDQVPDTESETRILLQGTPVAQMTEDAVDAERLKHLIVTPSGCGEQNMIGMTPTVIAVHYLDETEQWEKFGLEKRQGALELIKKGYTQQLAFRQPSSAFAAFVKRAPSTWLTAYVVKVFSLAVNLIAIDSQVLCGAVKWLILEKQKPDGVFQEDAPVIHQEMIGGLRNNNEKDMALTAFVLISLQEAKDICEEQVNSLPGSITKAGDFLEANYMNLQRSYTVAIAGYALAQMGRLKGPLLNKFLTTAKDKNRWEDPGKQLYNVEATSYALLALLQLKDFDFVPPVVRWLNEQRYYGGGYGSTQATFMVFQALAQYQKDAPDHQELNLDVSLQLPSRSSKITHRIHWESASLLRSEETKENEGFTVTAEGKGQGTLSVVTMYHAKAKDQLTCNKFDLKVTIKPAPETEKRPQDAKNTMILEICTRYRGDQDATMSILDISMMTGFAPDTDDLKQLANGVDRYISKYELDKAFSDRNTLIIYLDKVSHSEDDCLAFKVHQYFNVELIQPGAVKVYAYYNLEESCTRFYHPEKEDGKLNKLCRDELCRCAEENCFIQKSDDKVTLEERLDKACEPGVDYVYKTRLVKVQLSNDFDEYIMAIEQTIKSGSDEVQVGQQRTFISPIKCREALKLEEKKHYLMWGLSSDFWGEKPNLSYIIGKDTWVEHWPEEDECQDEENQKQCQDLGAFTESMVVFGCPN
Chain of C3 convertase complex (P00751 260-764, chain 2 of 2): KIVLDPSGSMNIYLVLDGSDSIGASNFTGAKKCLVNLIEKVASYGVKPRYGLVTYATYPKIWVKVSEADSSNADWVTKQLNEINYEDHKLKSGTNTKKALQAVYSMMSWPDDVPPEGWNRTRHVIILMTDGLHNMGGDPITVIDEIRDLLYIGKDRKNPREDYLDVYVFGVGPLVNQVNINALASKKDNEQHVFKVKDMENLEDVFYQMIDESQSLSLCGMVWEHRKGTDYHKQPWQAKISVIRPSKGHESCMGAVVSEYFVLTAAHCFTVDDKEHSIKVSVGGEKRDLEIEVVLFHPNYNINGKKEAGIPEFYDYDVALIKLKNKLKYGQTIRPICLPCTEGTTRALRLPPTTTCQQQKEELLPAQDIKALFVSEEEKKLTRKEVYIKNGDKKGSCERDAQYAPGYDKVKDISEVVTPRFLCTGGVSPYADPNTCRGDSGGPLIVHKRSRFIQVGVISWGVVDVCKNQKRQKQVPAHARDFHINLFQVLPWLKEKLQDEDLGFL

C3 convertase activity % of the control: 77 % of the control
C3 convertase activity IC50: 0.471 mg/L
B1: pCEP4-1NT8-11CT20 (other)
chain: EDCNELPPRRNTEILTGSWSDQTYPEGTQAIYKCRPGYRSLGNVIMVCRKGEWVALNPLRKCQKRPCGHPGDTPFGTFTLTGGNVFEYGVKAVYTCNEGYQLLGEINYRECDTDGWTNDIPICEVVKCLPVTAPENGKIVSSAMEPDREYHFGQAVRFVCNSGYKIEGDEEMHCSDDGFWSKEKPKCVEISCKSPDVINGSPISQKIIYKENERFQYKCNMGYEYSERGDAVCTESGWRPLPSCEEKSCDNPYIPNGDYSPLRIKHRTGDEITYQCRNGFYPATRGNTAKCTSTGWIPAPRCTLKPCDYPDIKHGGLYHENMRRPYFPVAVGKYYSYYCDEHFETPSGSYWDHIHCTQDGWSPAVPCLRKCYFPYLENGYNQNYGRKFVQGKSIDVACHPGYALPKAQTTVTCMENGWSPTPRCIRVKTCSKSSIDIENGFISESQYTYALKEKAKYQCKLGYVTADGETSGSITCGKDGWSAQPTCIKSGASGCGPPPELLNGNVKEKTKEEYGHSEVVEYYCNPRFLMKGPNKIQCVDGEWTTLPVCIVEESTCGDIPELEHGWAQLSSPPYYYGDSVEFNCSESFTMIGHRSITCIHGVWTQLPQCVAIDKLKKCKSSNLIILEEHLKNKKEFDHNSNIRYRCRGKEGWIHTVCINGRWDPEVNCSMAQIQLCPPPPQIPNSHNMTTTLNYRDGEKVSVLCQENYLIQEGEEITCKDGRWQSIPLCVEKIPCSQPPQIEHGTINSSRSSQESYAHGTKLSYTCEGGFRISEENETTCYMGKWSSPPQCEGLPCKSPPEISHGVVAHMSDSYQYGEEVTYKCFEGFGIDGPAIAKCLGEKWSHPPSCIKTDCLSLPSFENAIPMGEKKDVYKAGEQVTYTCATYYKMDGASNVTCINSRWTGRPTCRDTSCVNPPTVQNAYIVSRQMSKYPSGERVRYQCRSPYEMFGDEEVMCLNGNWTEPPQCKDSTGKCGPPPPIDNGDITSFPLSVYAPASSVEYQCQNLYQLEGNKRITCRNGQWSEPPKCLHPCVISREIMENYNIALRWTAKQKLYSRTGESVEFVCKRGYRLSSRSHTLRTTCWDGKLEYPTCAKRGGSGHHHHHH

C3 convertase activity % of the control: 73 % of the control
C3 convertase activity IC50: 0.0916 mg/L
B2: pCEP4-1NT4-19CT20 (other)
chain: EDCNELPPRRNTEILTGSWSDQTYPEGTQAIYKCRPGYRSLGNVIMVCRKGEWVALNPLRKCQKRPCGHPGDTPFGTFTLTGGNVFEYGVKAVYTCNEGYQLLGEINYRECDTDGWTNDIPICEVVKCLPVTAPENGKIVSSAMEPDREYHFGQAVRFVCNSGYKIEGDEEMHCSDDGFWSKEKPKCVEISCKSPDVINGSPISQKIIYKENERFQYKCNMGYEYSERGDAVCTESGWRPLPSCEEKSGASGCGPPPPIDNGDITSFPLSVYAPASSVEYQCQNLYQLEGNKRITCRNGQWSEPPKCLHPCVISREIMENYNIALRWTAKQKLYSRTGESVEFVCKRGYRLSSRSHTLRTTCWDGKLEYPTCAKRGGSGHHHHHH
